Results reported in US20150299305A1.

What was measured:
Experiment in all cases: SPR, antibody immobilized, monomeric FcγR injected, steady state, pH 7.4; SPR, monomeric FcγR
[1] = biological target: Human FcγRI (CD64) (human) (UniProt P12314)
[2] = biological target: Human FcγRIIIa (CD16a) (human) (UniProt P08637)
[3] = biological target: Human FcγRIIIb (CD16b) (human) (UniProt O75015)
Sequence of Human FcγRIIIb (CD16b) (human) (O75015 17-200 limits assumed): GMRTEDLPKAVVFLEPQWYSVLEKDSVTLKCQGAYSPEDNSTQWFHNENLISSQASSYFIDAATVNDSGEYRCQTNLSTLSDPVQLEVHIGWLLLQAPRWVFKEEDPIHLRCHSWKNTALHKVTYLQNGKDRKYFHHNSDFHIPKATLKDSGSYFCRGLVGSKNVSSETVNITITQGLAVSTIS

Sequence of Human FcγRIIIa (CD16a) (human) (P08637 17-208 limits assumed): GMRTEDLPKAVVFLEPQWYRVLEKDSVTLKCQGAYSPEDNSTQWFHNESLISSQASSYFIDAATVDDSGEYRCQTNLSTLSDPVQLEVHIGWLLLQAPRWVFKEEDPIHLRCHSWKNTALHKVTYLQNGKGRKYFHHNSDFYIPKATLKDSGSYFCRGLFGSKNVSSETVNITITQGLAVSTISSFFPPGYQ
Sequence of Human FcγRI (CD64) (human) (P12314 16-288 limits assumed): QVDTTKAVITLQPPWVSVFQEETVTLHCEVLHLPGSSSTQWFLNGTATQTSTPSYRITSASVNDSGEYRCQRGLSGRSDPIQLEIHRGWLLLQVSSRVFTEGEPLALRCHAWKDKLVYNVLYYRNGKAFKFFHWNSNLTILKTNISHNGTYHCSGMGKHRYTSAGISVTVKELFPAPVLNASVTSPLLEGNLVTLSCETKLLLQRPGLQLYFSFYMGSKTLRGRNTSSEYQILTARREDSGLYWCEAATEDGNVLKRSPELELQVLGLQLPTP

Kd [1]: 3.78 µM
Kd [2]: 6.78 µM
Kd [3]: 3.49 µM
B1: eculizumab (antibody, human IgG2, kappa)
heavy: QVQLVQSGAEVKKPGASVKVSCKASGYIFSNYWIQWVRQAPGQGLEWMGEILPGSGSTEYTENFKDRVTMTRDTSTSTVYMELSSLRSEDTAVYYCARYFFGSSPNWYFDVWGQGTLVTVSSASTKGPSVFPLAPCSRSTSESTAALGCLVKDYFPEPVTVSWNSGALTSGVHTFPAVLQSSGLYSLSSVVTVPSSNFGTQTYTCNVDHKPSNTKVDKTVERKCCVECPPCPAPPVAGPSVFLFPPKPKDTLMISRTPEVTCVVVDVSQEDPEVQFNWYVDGVEVHNAKTKPREEQFNSTYRVVSVLTVLHQDWLNGKEYKCKVSNKGLPSSIEKTISKAKGQPREPQVYTLPPSQEEMTKNQVSLTCLVKGFYPSDIAVEWESNGQPENNYKTTPPVLDSDGSFFLYSRLTVDKSRWQEGNVFSCSVMHEALHNHYTQKSLSLSLGK
light: DIQMTQSPSSLSASVGDRVTITCGASENIYGALNWYQQKPGKAPKLLIYGATNLADGVPSRFSGSGSGTDFTLTISSLQPEDFATYYCQNVLNTPLTFGQGTKVEIKRTVAAPSVFIFPPSDEQLKSGTASVVCLLNNFYPREAKVQWKVDNALQSGNSQESVTEQDSKDSTYSLSSTLTLSKADYEKHKVYACEVTHQGLSSPVTKSFNRGEC
